In this assay the target is LC3B LIR docking site (LDS) mutant (F52A/L53A) (UniProt Q9GZQ8). Nature of the assay: ITC. (In general: In ITC the heat of successive injections is recorded.)

Results on one substance are retold here after paper doi:10.1101/2023.07.18.549521.

As usually defined, the Kd is the equilibrium constant for the complex coming apart. High values mean lower affinity, low ones higher affinity.

Substance “tepsin LIR motif peptide (residues 185-193)” came in with a dissociation constant Kd of over 300 µM.
